Laboratory results published in patent publication US20040180051A1 (published 2004).
Substitutions are numbered along the chain they refer to.

B1: humanized L chain version “b” combined with a chimeric H chain (antibody, V domains shown)
VH: EVQLQQSGTNLVRPGALVKLSCKGSGFNIKDYYMHWVKQRPEQGLEWIGGNDPANGHSMYDPKFQGKASITADTSSNTAYLQLSSLTSEDTAVYFCARDSGYAMDYWGQGTSVTVSS
VL: DIQMTQSPSSLSASVGDRVTITCKASQDIKSFLSWYQQKPGKAPKLLIYYATSLADGVPSRFSGSGSGTDYTLTISSLQPEDFATYYCLQHGESPYTFGGGTKVEIK
notes: expressed in COS-7; also called ch-b
B2: H chain humanized version b/L chain humanized version b antibody (antibody, V domains shown)
VH: QVQLLESGAVLARPGTSVKISCKASGFNIKDYYMHWVKQRPGQGLEWIGGNDPANGHSMYDPKFQGRVTITADTSTNTAYMELSSLRSEDTAIYYCARDSGYAMDYWGQGTLVTVSS
VL: B1 VL
notes: also called b-b
B3: humanized H chain version “d” combined with the humanized L chain version “b” (antibody, V domains shown)
VH: B2 VH with T74E, N77S, T91S, I93V, Y95F
VL: B1 VL
notes: expressed in COS-7; also called d-b
B4: humanized H chain version “i” combined with the humanized L chain version “b1” (antibody, V domains shown)
VH: B2 VH with N77S, A79V, Y80F, I93V
VL: B1 VL with Y36F, A43S, L46T
notes: expressed in COS-7; also called i-b1
B5: humanized H chain version “b” combined with the humanized L chain version “b2” (antibody, V domains shown)
VH: B2 VH
VL: B1 VL with G41E, L46S
notes: expressed in COS-7; also called b-b2
B6: H chain humanized version i/L chain humanized version b2 antibody (antibody, V domains shown)
VH: B2 VH with N77S, A79V, Y80F, I93V
VL: B1 VL with G41E, L46S
notes: also called i-b2
B7: humanized H chain version “j” combined with the humanized L chain version “b” (antibody, V domains shown)
VH: B2 VH with I70F, T76A, S84R, E89A, I93V
VL: B1 VL
notes: expressed in COS-7; also called j-b
B8: humanized L chain version “b1” combined with a chimeric H chain (antibody, V domains shown)
VH: B1 VH
VL: B1 VL with Y36F, A43S, L46T
notes: expressed in COS-7; also called ch-b1
B9: humanized H chain version “g” combined with the humanized L chain version “b” (antibody, V domains shown)
VH: B2 VH with R67K, V68A, I70L, T74E, T76S, N77S, E82Q, T91S, I93V, Y95S
VL: B1 VL
notes: expressed in COS-7; also called g-b
B10: humanized H chain version “d3” combined with the humanized L chain version “b” (antibody, V domains shown)
VH: B2 VH with K38R, R40A, T74E, N77S, T91S, I93V, Y95F
VL: B1 VL
notes: expressed in COS-7; also called d3-b
B11: humanized H chain version “b” combined with the humanized L chain version “a” (antibody, V domains shown)
VH: B2 VH
VL: B1 VL with Y71F
notes: expressed in COS-7; also called b-a
B12: humanized L chain version “a” combined with a chimeric H chain (antibody, V domains shown)
VH: B1 VH
VL: B1 VL with Y71F
notes: expressed in COS-7
B13: humanized L chain version “c” combined with a chimeric H chain (antibody, V domains shown)
VH: B1 VH
VL: B1 VL with F83I
notes: expressed in COS-7
B14: humanized L chain version “b2” combined with a chimeric H chain (antibody, V domains shown)
VH: B1 VH
VL: B1 VL with G41E, L46S
notes: expressed in COS-7; also called ch-b2
B15: humanized H chain version “b” combined with the humanized L chain version “c” (antibody, V domains shown)
VH: B2 VH
VL: B1 VL with F83I
notes: The construction of its expression plasmid is not described
B16: H chain humanized version i/L chain humanized version b antibody (antibody, V domains shown)
VH: B2 VH with N77S, A79V, Y80F, I93V
VL: B1 VL
B17: humanized H chain version “b3” combined with the humanized L chain version “b” (antibody, V domains shown)
VH: B2 VH with K38R, R40A
VL: B1 VL
notes: expressed in COS-7; also called b3-b
B18: humanized H chain version “a” combined with a chimeric L chain (antibody, V domains shown)
VH: QVQLLESGAVLARPGTSVKISCKASGFNIKDYYMHWVKQRPGQGLEWIGGNDPANGHSMYDPKFQGRAKLTAATSASIAYLEFSSLTNEDSAVYYCARDSGYAMDYWGQGTLVTVSS
VL: DIKMTQSPSSMYASLGERVTITCKASQDIKSFLSWYQQKPWKSPKTLIYYATSLADGVPSRFSGSGSGQDYSLTINNLESDDTATYYCLQHGESPYTFGGGTKLEIK
notes: expressed in COS-7
B19: chimeric ATR-5 antibody (antibody, V domains shown)
VH: B1 VH
VL: B18 VL
notes: Mouse V regions on human C regions; also called ch-ch; chimeric antibody
B20: humanized H chain version “c” combined with a chimeric L chain (antibody, V domains shown)
VH: QVQLLESGAVLARPGTSVKISCKASGFNIKDYYMHWVKQRPGQGLEWIGGNDPANGHSMYDPKFQGRVTMLVDTSKNQFSLRLSSVTAADTAVYYCARDSGYAMDYWGQGTLVTVSS
VL: B18 VL
notes: expressed in COS-7; also called c-ch
B21: humanized H chain version “a” combined with the humanized L chain version “a” (antibody, V domains shown)
VH: B18 VH
VL: B1 VL with Y71F
notes: expressed in COS-7; also called a-a
B22: humanized H chain version “b” combined with a chimeric L chain (antibody, V domains shown)
VH: B2 VH
VL: B18 VL
notes: expressed in COS-7; also called b-ch
B23: humanized H chain version “j” combined with a chimeric L chain (antibody, V domains shown)
VH: B2 VH with I70F, T76A, S84R, E89A, I93V
VL: B18 VL
notes: expressed in COS-7; also called j-ch
B24: humanized H chain version “i” combined with a chimeric L chain (antibody, V domains shown)
VH: B2 VH with N77S, A79V, Y80F, I93V
VL: B18 VL
notes: expressed in COS-7; also called i-ch
B25: humanized H chain version “e” combined with a chimeric L chain (antibody, V domains shown)
VH: B2 VH with T69S, T74E, N77K, T78I, S84N, I93V, Y95F
VL: B18 VL
notes: expressed in COS-7; also called e-ch
B26: humanized H chain version “d” combined with a chimeric L chain (antibody, V domains shown)
VH: B2 VH with T74E, N77S, T91S, I93V, Y95F
VL: B18 VL
notes: expressed in COS-7; also called d-ch

Experiments:
[1] = target: T1, human tissue factor (human TF) on human bladder carcinoma cells J82 (human, UniProt P13726 33-295); experiment: cell ELISA on fixed J82 cells;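 further: measures antigen binding in a cell ELISA on J82 cells grown one day in 96-well plates and fixed with 4% paraformaldehyde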
T1 construct: whole, on cells; Target of the cell ELISA; also called the antigen

[2] = target: T1, human tissue factor (human TF) on human …; experiment: cell ELISA on fixed J82 cells; reference antibody (CHO DG44 expressed)

Binder | binding result [1] | binding result [2]
B1 | binds | –
B2 | binds | –
B3 | binds | –
B4 | binds | –
B5 | binds | –
B6 | binds | –
B7 | binds | –
B8 | binds | –
B9 | binds | –
B10 | binds | –
B11 | binds | –
B12 | binds | –
B13 | binds | –
B14 | binds | –
B15 | binds | –
B16 | binds | –
B17 | binds | –
B18 | binds | –
B19 | – | binds
B20 | binds | –
B21 | binds | –
B22 | binds | –
B23 | binds | –
B24 | binds | –
B25 | binds | –
B26 | binds | –
